Stoichiometry N data for one substance are collected here from publication PMC10585004.

The assay addresses Bovine Thyroglobulin (Sigma-T1001) (bovine) (UniProt P01267). Nature of the assay: SAXS; XFEL small-angle scattering, liquid jet (GDVN) with reservoir delivery, thyroglobulin 0.7 mg/ml in PBS; experimental form factor compared with the profile computed (CRYSOL) from the cryo-EM dimer model.

A word on the stoichiometry N: it is the number of molecules, sites or subunits per partner or assembly. “Bovine Thyroglobulin (Sigma-T1001), P01267 20-2769” gave a stoichiometry N of 2.
